Measured values published in the supplement of paper PMC9170038.

Test system: MS2 coat protein
Assay: apparent KD of MS2 coat protein; designed switch direction (-1 OFF switch, 1 ON switch): -1; higher = weaker reporter binding
Summary of the method: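 Three titration conditions were used: no input, 200 uM small-molecule ligand, and an oligonucleotide input. In each, SNAP-549-labelled MS2 coat protein was raised from 0.7 or 1.5 nM, doubling, to 3 µM over designed RNA switches transcribed on Illumina chips by stalled E. coli RNA polymerase. Curve fits of normalised cluster fluorescence gave values whose per-design median over clusters is the apparent KD.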

[1] = input ligand: microRNA oligo, concentration not stated
[2] = Eterna round: R95, input ligand: FMN 200 uM
[3] = Eterna round: R95, input ligand: microRNA oligo, concentration not stated
[4] = Eterna round: R95, input ligand: none

Sequence	apparent KD of MS2 coat protein (input ligand: FMN 200 uM)	apparent KD of MS2 coat protein [1]	apparent KD of MS2 coat protein (input ligand: none)	apparent KD of MS2 coat protein [2]	apparent KD of MS2 coat protein [3]	apparent KD of MS2 coat protein [4]
AGAGUGCUGCGAGGAUAUACAUGAGGAUCACCCAUGUGGAUCUGUGAGGCAAAGCCUCACAGGAUGUAGAAGGCGCAGUACUCA [Mat - Exclusion NG 2 - Mod of JL - D49] (Eterna round: R96, puzzle: Exclusion NG 2)	0.156 µM	0.0234 µM	0.0289 µM			
CGAGGUAGAGGAUAUACGUGGAUGUAAAUUCAUGAUAUUCUACAUGAGGAUCACCCAUGUAGAAGGCUAUAGCG [JR_Ex2_Sub077] (Eterna round: R97, puzzle: Exclusion 2)	0.0269 µM		0.018 µM			
UGCUAGUCAGGAUAUACGAACAUGUCAAAAGACGUGAAGGGACAUGAGGAUCACCCAUGUAGAAGGGACUAGCG [salish99_ex2_r3_007] (puzzle: Exclusion 2)				0.144 µM	0.0272 µM	0.0279 µM
GCAUGGCGAGGAUAUACAUGAGGAUCACCCAUGUGAGAAGAAUAAGUGAGGAAGAAAAGUAGAAGGCGCUGUGG [Mat - Exclusion 3 - Mod of Salish D63] (puzzle: Exclusion 3)				0.128 µM	0.0515 µM	0.085 µM
CAGUACUGAGGAUAUACAUGAGGAUCACCCAUGUCCUAAAAGUAGGAUACUACUAUUAGUAGAAGGCAGUACUG [Fiskers Ex 3 828 mod 23] (puzzle: Exclusion 3)					0.0181 µM	
AAAAGCCAUGUUAGGAUAUGCAUGGCAGCUGCGAUGCAGAAGGAACAUGAGGAUCACCCAUGUGAACUUAAAUA [Anmaleus] (puzzle: Brourd's mod of Exclusion 4)				0.0212 µM	0.0162 µM	0.0183 µM
CUCCGCGCUGUCAGGAUAUCCAGGGCCUACCGGCCGGAGAAGGGACAUGAGGAUCACCCAUGUUCGGGUUAGCA [Eszaquus] (puzzle: Brourd's mod of Exclusion 4)					0.0133 µM	
GAUGCUCCGGUCAGGAUAUCAGGUGCAAGCACCGGUGAGAAGGGACAUGAGGAUCACCCAUGUAAAAUAAGACC [Aenxeza] (Eterna round: R97, puzzle: Brourd's mod of Exclusion 4)	0.0407 µM		0.024 µM			
CUCGGACAUGAGGAUCACCCAUGUGAGGAUAUGGUGCUAUCGUCAUUAGACGAUUGCGUUAGAAGGCACAUUUU [LRO-Excl1-29] (puzzle: Exclusion 1)					0.0295 µM	
AAAUACAAGCAAAGAUCUUACAUGAGGAUCACCCAUGUGCUCGUUUUAUAAAGUACUAUCACGAAAGUGAUAGUACA [Sensor 3, v1 - 31] (puzzle: Sensor v3, turn-off variant 1)				0.025 µM	0.0934 µM	0.0283 µM
CGCAAAAGAGGAUAUACAUGAGGAUCACCCAUGUUUUCUCUUCAUAACGGAAACUCGUGUAGAAGGCUUGUGCG [EX3 C.18] (Eterna round: R97, puzzle: Exclusion 3)	0.0944 µM		0.103 µM			
AUGAGUUGAGGAUAUACGUGAGGCGUUAACGCCGCCAGUCAACAUGAGGAUCACCCAUGUAGAAGGCAACCGUC [Eternabot (L1) Solution 6] (Eterna round: R97, puzzle: Exclusion 2)	0.0221 µM		0.0197 µM			
UGACUUCAUAUCACAUGAGGAUCACCCAUGUUAUUCAUCGCGUAGGAUAUCGAGGUUUAUUAUUACGAGAAGGACGUAUUGAUA [JR_ExcNG3_Sub074] (Eterna round: R96, puzzle: Exclusion NG 3)	0.0611 µM	0.0345 µM	0.0407 µM			
UCGGCGUCAGGAUAUCCAAUAUAUGACAUGAGGAUCACCCAUGUUUCCACUCGUACCUCCGGAGAAGGGACGAAUU [Ex5 #92] (Eterna round: R97, puzzle: Exclusion 5)	0.0335 µM		0.0321 µM			
UGCAGACGAGGAUAUAAACGAUAUAACAUGAGGAUCACCCAUGUACGAUCGAUAGAUCGUUUAGAAGGCGUCUGCU [E5/9-A3] (Eterna round: R97, puzzle: Exclusion 5)	0.0145 µM		0.0141 µM			
CUGAGGUAGCGGUCCUAUGACAUGAGGAUCACCCAUGUACCUUGCUUCGAGCAUUUUGCUCGUCUUAUGAUUCUCGG [Mat - Sensor v3 - turn-off var 1 - JL Mod - D35] (puzzle: Sensor v3, turn-off variant 1)				0.45 µM	0.481 µM	0.507 µM
AGAGCUGCCCAUGACCGCAAGCUUUUUGCUUGUCUUACCACAUGAGGAUCACCCAUGUGACAUGGGCUCCUUAUAAA [Azavees] (puzzle: Sensor v3, turn-off variant 2)				0.0139 µM	0.00941 µM	0.0133 µM
UCUCCCUGGCGAGGAUAUCCUGUGCGGUUCCGGCUCGUGUCUGUUACAUGAGGAUCACCCAUGUGGGAGAAGGUGCCUGUGGCU [Design 93] (Eterna round: R96, puzzle: Exclusion NG 2)	0.141 µM	0.068 µM	0.124 µM			
GACACGGAUGUCAGGAUAUGCAAAUGGCAUCGUUCGCAGAAGGGACAUGAGGAUCACCCAUGUAAAAGUGGACC [Onsorelama] (Eterna round: R97, puzzle: Brourd's mod of Exclusion 4)	0.109 µM		0.114 µM			
UGUGUAACGGAGGAUAUAGGACUUCAACGAAGACUAGAAGGCCGAACAUGAGGAUCACCCAUGUGGUCCUCCGU [Dicesoqu] (puzzle: Exclusion 6)					0.0132 µM	
AGUUGUUGUUUCCGUUCUUACAUGAGGAUCACCCAUGUUUCUUGUCGUGCUCGCGUUGCUCGUCAGACUUCCUGUUG [salish99_TOv1_r3_066] (puzzle: Sensor v3, turn-off variant 1)				0.0773 µM	0.0931 µM	0.121 µM
GUGUAGUGAGGAUAUCGUUGUUAGGAGGAGAAGGUAGGAGGCGAGAAGGCACAUGAGGAUCACCCAUGUAUGAG [JR_Exclu4_Sub063] (puzzle: Exclusion 4)					0.0235 µM	
CACCUGAAGAGAGGAUAUCAUACAUGAGGAUCACCCAUGUAAUAAAUGAGAAUUUCGAAUGUAAUUGAGAAGGCUCGAUAAGGC [Ostricism 92 - Jieux - Exclusion NG 2] (Eterna round: R96, puzzle: Exclusion NG 2)	0.109 µM	0.0549 µM	0.059 µM			
AUUUUAUAUGAAGGAUAUACUUAACAUGAGGAUCACCCAUGUGGUGUUGUGAGUGAGUGAGUUUAGUAGAAGGUCAAUGAUUUU [JMF's solution 76] (Eterna round: R96, puzzle: Exclusion NG 2)	0.828 µM	0.527 µM	0.327 µM			
AAGGUGUUAGGAUAUCGGAGUUUGAGGCAGACGGGAAUUUUCGAGAAGGAACAUGAGGAUCACCCAUGUAGUAU [JR_Exclu4_Sub039] (puzzle: Exclusion 4)					0.0216 µM	
GUUAACGUAGGAUAUUAGUACAUGAACAUGAGGAUCACCCAUGUGAGGUGGGUCUUAGAUUAAGAAGGGCGAAGAA [EX5 #30] (Eterna round: R97, puzzle: Exclusion 5)	0.525 µM		0.867 µM			
